Assay [1] concerns the target SARS-CoV-2 RBD-Fc fusion protein (SARS-CoV-2, UniProt P0DTC2). Description: ELISA. Conditions: both partners purified.
The target in assay [2] is SARS-CoV-2 RBD without the Fc fragment (SARS-CoV-2, UniProt P0DTC2). Description: ELISA. Conditions: both partners purified.

Residue numbers refer to the chain shown, from its start.

B1: nCoVFab1 (Fab, V domains shown)
VH: QVQLVESGGGLVQPGGSLRLSCAASGFTVSSNYMSWVRQAPGKGLEWVSVIYSGGSTYYADSVKGRFTISRDNSKNTLYLQMNSLRAEDTAVYYCARGDGSDDYYYGMDVWGQGTTVTVSS
VL: QSVVTQPPSVSGAQGQRVFISCTGNGANIGMGYDVHWYQQLPGRAPKLLIFGNTNRPSGVPDRFSASRSGTSASLAITGLQTADEADYYCQSYDGNLRASVFGGGTKLTVL
notes: source: E. coli strain HB2151, purified (nickel-nitrilotriacetic acid resin)
B1 yielded an EC50 in assay [1] of approximately 16 nM.

B2: nCoVmab1_(gHmL) (antibody, V domains shown)
VH: B1 VH with Q1E, D102Y, D103Y
VL: B1 VL
With B2, the binding result in assay [2] is listed as “no binding”.

B3: nCoVmab2 (antibody, V domains shown)
VH: B1 VH with Q1E, E6Q, L11V, G16R
VL: QAVLTQPSSVSGAPGQRVTISCTGSSSNVGAGYDVHWYQQLPGTAPKLLIYGNSNRPSGVPDRFSGSKSGTSASLAITGLQAEDEADYYCQSYDSSLSGSVFGGGTKLTVL
notes: also called nCoVFab2 in IgG1 format; source: 293F cells, purified (Protein A resin)
As for B3, the response in assay [2] was half-maximal at 0.84 nM (EC50).

B4: nCoVmab1gFR (antibody, V domains shown)
VH: B1 VH with Q1E
VL: B1 VL with Q14P, F19T, N25S, R44T, F51Y, A66G, R68K, T82A, A83E
Turning to B4, in assay [2], the binding result is “binds”.

B5: nCoVmab1_(gHgL) (antibody, V domains shown)
VH: B1 VH with Q1E, D102Y, D103Y
VL: B3 VL with A2S, L4V, S8P, V29I, S100W
Turning to B5, the binding result in assay [2] is “no binding”.

B6: nCoVmab1 (antibody, V domains shown)
VH: B1 VH
VL: B1 VL
notes: also called nCoVFab1 in IgG1 format; source: 293F cells, purified (Protein A resin)
In assay [2], B6 yielded an EC50 of 0.56 nM.

B7: nCoVFab2 (Fab, V domains shown)
VH: B1 VH with Q1E, E6Q, L11V, G16R
VL: B3 VL
notes: as for B1
The molecule B7 showed an EC50 in assay [1] of approximately 63 nM.

The values above are taken from article PMC8352940 (Nature Communications, 2021).
